B1: ACAD9 (wild type, without a tag) (enzyme, human, UniProt Q9H845 38-621, looked up)
chain: AFAKELFLGKIKKKEVFPFPEVSQDELNEINQFLGPVEKFFTEEVDSRKIDQEGKIPDETLEKLKSLGLFGLQVPEEYGGLGFSNTMYSRLGEIISMDGSITVTLAAHQAIGLKGIILAGTEEQKAKYLPKLASGEHIAAFCLTEPASGSDAASIRSRATLSEDKKHYILNGSKVWITNGGLANIFTVFAKTEVVDSDGSVKDKITAFIVERDFGGVTNGKPEDKLGIRGSNTCEVHFENTKIPVENILGEVGDGFKVAMNILNSGRFSMGSVVAGLLKRLIEMTAEYACTRKQFNKRLSEFGLIQEKFALMAQKAYVMESMTYLTAGMLDQPGFPDCSIEAAMVKVFSSEAAWQCVSEALQILGGLGYTRDYPYERILRDTRILLIFEGTNEILRMYIALTGLQHAGRILTTRIHELKQAKVSTVMDTVGRRLRDSLGRTVDLGLTGNHGVVHPSLADSANKFEENTYCFGRTVETLLLRFGKTIMEEQLVLKRVANILINLYGMTAVLSRASRSIRIGLRNHDHEVLLANTFCVEAYLQNLFSLSQLDKYAPENLDEQIKKVSQQILEKRAYICAHPLDRTC
B2: ACAD9 Arg532Trp (enzyme, human, UniProt Q9H845 38-621, looked up)
chain: B1 chain with R495W
B3: ACAD9 Arg518His (enzyme, human, UniProt Q9H845 38-621, looked up)
chain: B1 chain with R481H
B4: ACAD9-His6 (enzyme, human, UniProt Q9H845 38-621, looked up)
chain: B1 chain
B5: ACAD9 Arg469Trp (enzyme, human, UniProt Q9H845 38-621, looked up)
chain: B1 chain with R432W
B6: ACAD9 Glu426Gln (enzyme, human, UniProt Q9H845 38-621, looked up)
chain: B1 chain with E389Q
B7: ECSIT (tag-free) (natural protein, human, UniProt Q9BQ95 49-431, looked up)
chain: SSEQSLVPSPPEPRQRPTKALVPFEDLFGQAPGGERDKASFLQTVQKFAEHSVRKRGHIDFIYLALRKMREYGVERDLAVYNQLLNIFPKEVFRPRNIIQRIFVHYPRQQECGIAVLEQMENHGVMPNKETEFLLIQIFGRKSYPMLKLVRLKLWFPRFMNVNPFPVPRDLPQDPVELAMFGLRHMEPDLSARVTIYQVPLPKDSTGAADPPQPHIVGIQSPDQQAALARHNPARPVFVEGPFSLWLRNKCVYYHILRADLLPPEEREVEETPEEWNLYYPMQLDLEYVRSGWDNYEFDINEVEEGPVFAMCMAGAHDQATMAKWIQGLQETNPTLAQIPVVFRLAGSTRELQTSSAGLEEPPLPEDHQEEDDNLQRQQQGQS
B8: Loop12-ACAD9 (enzyme, human)
chain: AFAKELFLGKIKKKEVFPFPEVSQDELNEINQFLGPVEKFFTEEVDSRKIDQEGKIPDETLEKLKSLGLFGLQVPEEYGGLGFSNTMYSRLGEIISMDGSITVTLAAHQAIGLKGIILAGTEEQKAKYLPKLASGEHIAAFCLTEPASGSDAASIRSRATLSEDKKHYILNGSKVWITNGGLANIFTVFAKTEVVDSDGSVKDKITAFIVERDFGGVTNGKPEDKLGIRGSNTCEVHFENTKIPVENILGEVGDGFKVAMNILNSGRFSMGSVVAGLLKRLIEMTAEYACTRKQFNKRLSEFGLIQEKFALMAQKAYVMESMTYLTAGMLDQPGFPDCSIEAAMVKVFSSEAAWQCVSEALQILGGLGYTRDYPYERILRDTRILLIFEGTNEILRMYIALTGLQHAGRILTTGGSGGSGGSGGSDLGLTGNHGVVHPSLADSANKFEENTYCFGRTVETLLLRFGKTIMEEQLVLKRVANILINLYGMTAVLSRASRSIRIGLRNHDHEVLLANTFCVEAYLQNLFSLSQLDKYAPENLDEQIKKVSQQILEKRAYICAHPLDRTC
B9: His6-SMT3-NDUFAF1 (natural protein, human, UniProt Q9Y375 25-327, looked up)
chain: YPFLGIRFAEYSSSLQKPVASPGKASSQRKTEGDLQGDHQKEVALDITSSEEKPDVSFDKAIRDEAIYHFRLLKDEIVDHWRGPEGHPLHEVLLEQAKVVWQFRGKEDLDKWTVTSDKTIGGRSEVFLKMGKNNQSALLYGTLSSEAPQDGESTRSGYCAMISRIPRGAFERKMSYDWSQFNTLYLRVRGDGRPWMVNIKEDTDFFQRTNQMYSYFMFTRGGPYWQEVKIPFSKFFFSNRGRIRDVQHELPLDKISSIGFTLADKVDGPFFLEIDFIGVFTDPAHTEEFAYENSPELNPRLFK
B10: His6-C-ECSIT (domain or fragment, human, UniProt Q9BQ95 249-431, looked up)
chain: LPKDSTGAADPPQPHIVGIQSPDQQAALARHNPARPVFVEGPFSLWLRNKCVYYHILRADLLPPEEREVEETPEEWNLYYPMQLDLEYVRSGWDNYEFDINEVEEGPVFAMCMAGAHDQATMAKWIQGLQETNPTLAQIPVVFRLAGSTRELQTSSAGLEEPPLPEDHQEEDDNLQRQQQGQS
B11: very long chain acyl-CoA dehydrogenase (VLCAD) (enzyme, human, UniProt P49748 41-655, looked up)
chain: AGGAAQLALDKSDSHPSDALTRKKPAKAESKSFAVGMFKGQLTTDQVFPYPSVLNEEQTQFLKELVEPVSRFFEEVNDPAKNDALEMVEETTWQGLKELGAFGLQVPSELGGVGLCNTQYARLVEIVGMHDLGVGITLGAHQSIGFKGILLFGTKAQKEKYLPKLASGETVAAFCLTEPSSGSDAASIRTSAVPSPCGKYYTLNGSKLWISNGGLADIFTVFAKTPVTDPATGAVKEKITAFVVERGFGGITHGPPEKKMGIKASNTAEVFFDGVRVPSENVLGEVGSGFKVAMHILNNGRFGMAAALAGTMRGIIAKAVDHATNRTQFGEKIHNFGLIQEKLARMVMLQYVTESMAYMVSANMDQGATDFQIEAAISKIFGSEAAWKVTDECIQIMGGMGFMKEPGVERVLRDLRIFRIFEGTNDILRLFVALQGCMDKGKELSGLGSALKNPFGNAGLLLGEAGKQLRRRAGLGSGLSLSGLVHPELSRSGELAVRALEQFATVVEAKLIKHKKGIVNEQFLLQRLADGAIDLYAMVVVLSRASRSLSEGHPTAQHEKMLCDTWCIEAAARIREGMAALQSDPWQQELYRNFKSISKALVERGGVVTSNPLGF

The data set “SEC” concerns the molecule itself. The data set is described as follows: SEC.
The data set “ACAD9-His6” deals with B4. The data set is described as follows: pull-down.
Data set [1] addresses T1, His6-ECSIT (human, UniProt Q9BQ95 49-431).
T1 sequence (looked up): B7 chain
Put plainly: SEC. (In general: In gel filtration, larger molecules generally elute earlier.)

For data set [2], the target named is T1, His6-ECSIT. Put plainly: SEC. This is another data set of the same source.
The target in data set [3] is B1. Put plainly: SEC.

Residue numbers refer to the chain shown, from its start. Where two headings read alike, the source gives them in different places.

Take B1: in the data set “SEC”, the stoichiometry N (in general, the number of molecules, sites or subunits per partner or assembly) came out at 2.
Regarding B2, the “stoichiometry N” value in the data set “SEC” was found to be 2.
Regarding B3, the “stoichiometry N” value in the data set “SEC” stood at 2.
As for B4, the “stoichiometry N” value in the data set “SEC” is 2.
For B5, the “stoichiometry N” value in the data set “SEC” came to 2.
As for B6, the “stoichiometry N” value in the data set “SEC” worked out at 2.
With B7, the “stoichiometry N” value with ACAD9-His6 is about 1 mol/mol.
B8: the “stoichiometry N” value in “SEC” is 2.
For the molecule B9, the “stoichiometry N” value is 1 NDUFAF1 chains per ECSIT chain (two monomers with one dimer) in the data set with His6-ECSIT [1] and 1 mol/mol with His6-ECSIT [2].
Turning to B10, the “stoichiometry N” value was 4 in the data set “SEC” and 1 C-ECSIT chains per ACAD9 chain (one tetramer with two dimers) in data set [3].
On to B11, for which the “stoichiometry N” value in “SEC” was found to be 2.

The values are drawn from publication doi:10.1101/2021.01.07.425795 (bioRxiv, 2021).
